From article PMC6202052, “The ectodomains determine ligand function in vivo and selectivity of DLL1 and DLL4 toward NOTCH1 and NOTCH2 in vitro” (eLife, 2018) come the findings set out here.

One assay has as its target T1, N2(1–15)-Fc (human, UniProt Q04721 26-605).
T1 construct: human NOTCH2, printed as N2(1–15); no catalogue number is printed; Captured on protein A sensor tips by its Fc; also called human N2; human NOTCH2; source: bought: R and D systems, used without further purification
T1 sequence (looked up): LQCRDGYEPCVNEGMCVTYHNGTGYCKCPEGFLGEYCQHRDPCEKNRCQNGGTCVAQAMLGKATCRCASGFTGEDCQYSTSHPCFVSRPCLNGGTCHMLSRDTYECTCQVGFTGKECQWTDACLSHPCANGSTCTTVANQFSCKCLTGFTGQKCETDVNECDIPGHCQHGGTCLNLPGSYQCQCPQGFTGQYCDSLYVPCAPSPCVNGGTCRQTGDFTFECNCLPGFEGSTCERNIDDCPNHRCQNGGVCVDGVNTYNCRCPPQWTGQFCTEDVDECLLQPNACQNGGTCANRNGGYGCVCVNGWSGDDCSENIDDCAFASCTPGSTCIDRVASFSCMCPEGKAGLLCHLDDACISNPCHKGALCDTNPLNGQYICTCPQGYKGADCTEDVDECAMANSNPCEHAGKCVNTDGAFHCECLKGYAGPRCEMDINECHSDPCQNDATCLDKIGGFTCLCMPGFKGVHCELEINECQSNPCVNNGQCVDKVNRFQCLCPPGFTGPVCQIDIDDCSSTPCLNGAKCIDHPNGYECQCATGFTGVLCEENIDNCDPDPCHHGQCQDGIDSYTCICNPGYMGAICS
The experiment in a line: BLI; BLItz instrument; N2(1–15)-Fc captured on protein A biosensors, ligand samples of varying concentration; HBS-P buffer with 0.005% surfactant P20 and 5 mM CaCl2; equilibrium curves fitted with a one site specific binding model. The following applies: both partners purified.

In assay [1] the target is T2, biotinylated human N1 ectodomain fragment containing EGF repeats 6–15 (human, UniProt P46531 216-604, biotin on the Avi tag (BirA co-expression)).
T2 construct: human NOTCH1, EGF repeats 6–15 (amino acids 216–604); also called hN1; N1 fragment; source: Expi293F, transiently transfected (co-transfected with BirA and POFUT1), purified from the medium (Ni-NTA, Superdex 200); not shown: Avi (biotinylation) tag, C-terminal, kept
The experiment in a line: BLI; BLItz instrument; biotinylated Notch1 fragment loaded on streptavidin biosensors, dipped into ligand samples of varying concentration until equilibrium; HBS-P buffer with 0.005% surfactant P20 and 5 mM CaCl2; equilibrium curves fitted with a one site specific binding model. The following applies: both partners purified.

B1: D4N-E5 (DLL4 from the N-terminus through EGF-repeat 5) as used in the N2 binding experiment (domain or fragment, UniProt Q9NR61 27-400, looked up)
chain: SGVFQLQLQEFINERGVLASGRPCEPGCRTFFRVCLKHFQAVVSPGPCTFGTVSTPVLGTNSFAVRDDSSGGGRNPLQLPFNFTWPGTFSLIIEAWHAPGDDLRPEALPPDALISKIAIQGSLAVGQNWLLDEQTSTLTRLRYSYRVICSDNYYGDNCSRLCKKRNDHFGHYVCQPDGNLSCLPGWTGEYCQQPICLSGCHEQNGYCSKPAECLCRPGWQGRLCNECIPHNGCRHGTCSTPWQCTCDEGWGGLFCDQDLNYCTHHSPCKNGATCSNSGQRSYTCTCRPGYTGVDCELELSECDSNPCRNGGSCKDQEDGYHCLCPPGYYGLHCEHSTLSCADSPCFNGGSCRERNQGANYACECPPNFTGSNCE
notes: DLL4, N-terminus through EGF5; it may be the mouse fragment m2); The sentence names hD1N-E5 as human but prints D4N-E5 without a species prefix; source: Expi293F, transiently transfected, purified from the medium (Ni-NTA, Superdex 200)
On to B1, for which the affinity with N2(1–15)-Fc, expressed as Kd, was 1280 nM.

B2: mDLL1 fragment (mouse DLL1 from the N-terminus up to and including EGF5) (domain or fragment)
chain: not shown
notes: mouse DLL1, N-terminus up to and including EGF5; also called DLL1 (from the N-terminus through EGF-repeat 5); D1N-E5; source: Expi293F, transiently transfected, purified from the medium (Ni-NTA, Superdex 200)
Regarding B2, in assay [1], binding was put at a Kd of 1560 nM.

B3: hD1N-E5 (human DLL1 from the N-terminus through EGF-repeat 5) (domain or fragment, UniProt O00548 18-402, looked up)
chain: QVWSSGVFELKLQEFVNKKGLLGNRNCCRGGAGPPPCACRTFFRVCLKHYQASVSPEPPCTYGSAVTPVLGVDSFSLPDGGGADSAFSNPIRFPFGFTWPGTFSLIIEALHTDSPDDLATENPERLISRLATQRHLTVGEEWSQDLHSSGRTDLKYSYRFVCDEHYYGEGCSVFCRPRDDAFGHFTCGERGEKVCNPGWKGPYCTEPICLPGCDEQHGFCDKPGECKCRVGWQGRYCDECIRYPGCLHGTCQQPWQCNCQEGWGGLFCNQDLNYCTHHKPCKNGATCTNTGQGSYTCSCRPGYTGATCELGIDECDPSPCKNGGSCTDLENSYSCTCPPGFYGKICELSAMTCADGPCFNGGRCSDSPDGGYSCRCPVGYSGFNC
notes: human DLL1, N-terminus through EGF5; source: Expi293F, transiently transfected, purified from the medium (Ni-NTA, Superdex 200)
Regarding B3, the Kd – broadly, the equilibrium constant for the complex coming apart – with N2(1–15)-Fc was determined as 360 nM.

B4: mD4N-E5 (mouse DLL4 from the N-terminus up to and including EGF5) (domain or fragment, UniProt Q9JI71 27-401, looked up)
chain: GSGIFQLRLQEFVNQRGMLANGQSCEPGCRTFFRICLKHFQATFSEGPCTFGNVSTPVLGTNSFVVRDKNSGSGRNPLQLPFNFTWPGTFSLNIQAWHTPGDDLRPETSPGNSLISQIIIQGSLAVGKIWRTDEQNDTLTRLSYSYRVICSDNYYGESCSRLCKKRDDHFGHYECQPDGSLSCLPGWTGKYCDQPICLSGCHEQNGYCSKPDECICRPGWQGRLCNECIPHNGCRHGTCSIPWQCACDEGWGGLFCDQDLNYCTHHSPCKNGSTCSNSGPKGYTCTCLPGYTGEHCELGLSKCASNPCRNGGSCKDQENSYHCLCPPGYYGQHCEHSTLTCADSPCFNGGSCRERNQGSSYACECPPNFTGSNCE
notes: mouse DLL4, N-terminus up to and including EGF5; also called DLL4 (from the N-terminus through EGF-repeat 5); pLexM-D4N-E5-Avi-His; source: Expi293F, transiently transfected, purified from the medium (Ni-NTA, Superdex 200)
B4: the affinity in assay [1], expressed as Kd, was 430 nM.
